# Source: US9657092B2, “S100A4 antibodies and therapeutic uses thereof” (LYKERA BIOMED SA, priority 2010, dated 2017)
# T1: Human S100A7 (Homo sapiens, UniProt P31151)
# T1 construct: made in house
# T1 sequence (P31151 1-101): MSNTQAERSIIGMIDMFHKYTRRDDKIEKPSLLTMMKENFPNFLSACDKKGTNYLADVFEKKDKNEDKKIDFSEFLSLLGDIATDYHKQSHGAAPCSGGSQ
# Legend:
# [1] = tested on: MMP9 proteolytic activity induced by S100A4; experiment: Gelatin zymography of HUVECs conditioned media; format: cell-based, human; details: 1-2 μM antibody with S100A4 1 μM, 24 h
# Experimental: HUVECs were grown in EBM plus supplements (EGM) and 10% FCS, in 24-well culture plates. Before stimulation, cells were maintained 4 hours in EBM in the absence of serum or other supplements. Then, S100A4 (0.3-1-3 μM), in EBM were added to the culture to analyze their capacity to increase the secretion of active forms of matrix metalloproteinases (MMPs). […] After 24 hours at 37° C., supernatants were centrifuged to remove the debris. Then, 10 μL of Laemmli sample buffer without reducing agent (80 mM Tris-HCl pH 6.8, 4% SDS, 10% glycerol, 0.01% bromophenol blue) was added to 10 μl of each of the clear supernatants that were loaded without boiling in a 8% SDS-polyacrylamide gel copolymerized with Type A gelatine from porcine skin (Sigma) at a final concentration of 1 mg/mL. After electrophoresis, SDS was removed by washing the gel three times for 15 minutes with 2.5% Triton X-100 in H2O. […] Staining was performed for 1 hour at RT with 0.1% naphthol amido black (Sigma) in acetic acid, methanol and water at a proportion of 1:3:6 in volume. Then, gels were washed with destaining solution until clear bands were observed over a dark background. Bands were quantified using the NIH ImageJ imaging software.
# Human S100A7 = target: T1, Human S100A7; experiment: ELISA specificity (reaction pattern of mAb); format: binding; set-up: key: ++++ positive reaction; − no reaction
# [2] = tested on: circulant S100A4 protein in plasma; experiment: Plasma quantification of S100A4 by sandwich ELISA in xenograft tumor models; format: in vivo, athymic mice; details: MiaPACA-2 and HCT116 xenograft tumor model, end of experiment
# Experimental: Plasma levels of S100A4 were quantified by sandwich ELISA method. […] After removing the coating, plates were washed twice with PBS and incubated 1 h at 37° C. in blocking buffer (PBS containing 1% of skimmed milk).
# Plasma samples diluted 1:4 in dilution buffer (PBS-4% BSA) were applied to the wells (100 μl/well) and were incubated 2 h at 37° C. Plates were washed eight times with washing buffer (PBS-0.1% of Tween-20) and Rabbit polyclonal anti-S100A4 secondary antibody (Dako) at the appropriate dilution was applied to the wells (100 μl/well) and were incubated for 1 h at 37° C.
# Plates were washed eight times with washing buffer and Goat anti-Rabbit-IgG-peroxidase conjugated (Sigma) at the appropriate dilution was added to each well (100 μl/well) and were incubated 1 h at 37° C. […] Absorbance was ridden at 450 nm.
# Standard curve for basal plasma samples (animals without tumor), was obtained by serial dilutions of murine recombinant S100A4 in dilution buffer. Standard curve for final plasma samples (animals with tumor at the end of the experiment) was obtained by serial dilutions of human recombinant S100A4 in dilution buffer.
# Human S100A2 = target: T2, Human S100A2 (Homo sapiens, UniProt P29034); experiment: ELISA specificity (reaction pattern of mAb); format: binding; set-up: key: ++++ positive reaction; − no reaction
# T2 construct: purchased Abnova
# HCT116 tumors = experiment: HCT116 subcutaneous xenograft tumor development; format: in vivo, nude mice; details: HCT116, end of experiment (day 21)
# Experimental: MiaPACA-2 human pancreatic adenocarcinoma cell line and HCT116 human colorectal adenocarcinoma cell line in exponential growth were harvested with trypsin-EDTA (0.05%/0.02%) (Invitrogen), washed, and examined for viability by trypan blue dye exclusion. Viability was greater than 95%. For primary tumor growth, cells (either 5×10^6 or 1×10^6 cells for MiaPACA-2 or HCT116 respectively in 0.1 mL DMEM high glucose) were subcutaneously injected into the flanks of nude mice. Tumor volumes between 65-160 mm^3 for MiaPACA-2 and volumes between 155-370 mm^3 for HCT116 were used to divide the mice into two groups of either ten mice each (MiaPACA-2) or seven mice each (HCT116), such that the mean tumor size was equal between groups (approximately 100 mm^3 for MiaPACA-2 or 220 mm^3 for HCT116). Tumor growth was followed by measuring tumor diameters with calipers and the tumor volume was calculated using an approximated formula for a prolate ellipsoid: volume=(D×d^2)/2 where D is the longest axis of the tumor and d the shortest. Mice were treated either with vehicle (PBS) or with the antibody, i.p. three times per week at 25 mg/Kg/100 μL of sterile PBS, starting the treatment at defined tumor volume (100 mm^3 and 220 mm^3). […]
# [3] = Body weight and adverse side effects in xenograft experiments; format: in vivo
# [4] = 25 mg/kg i.p. three times a week
# T2 sequence (P29034 whole entry): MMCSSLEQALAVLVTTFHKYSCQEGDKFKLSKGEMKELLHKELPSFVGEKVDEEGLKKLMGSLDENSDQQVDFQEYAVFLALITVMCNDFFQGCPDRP
molecule,measurement,setting,value
"5C3: mouse monoclonal anti-S100A4 antibody, IgG1, from hybridoma ECACC 10022401; VL SEQ ID NO: 1, VH SEQ ID NO: 2 (antibody, V domains shown, VH region of the 5C3 monoclonal antibody; VL region of the 5C3 monoclonal antibody) VH: EAQLQQSGAELVKPGASVKLSCTASGFNIQETYMHWVKQRPEQGLEWIGRIDPANGNTKDDPKFQGKASITVDTSSNTAYLQLSSLTSEDTAVYYCASSYAMDYWGQGTSVTVSS VL: DVLMTQTPLSLPVSLGDQASISCRSSQSIVHSNGNTYLEWYLQKTGQSPELLIYKVSNRLSGVPDRFSGSGSGTDFTLKISRVEAEDLGVYYCFQGSHVPFTFGSGTKLEIK",activity of MMP9 in the media,[1],completely reduced
same,"Reaction Pattern of mAb in ELISA, Human S100A7",Human S100A7,−
same,S100A4 protein levels in plasma of treated animals (unbound to 5C3),[2],blocks the totality of circulant S100A4 protein in plasma
same,"Reaction Pattern of mAb in ELISA, Human S100A2",Human S100A2,−
same,tumor weight compared with the control group,HCT116 tumors,induced a decrease in tumor weight
same,"adverse side effects (motor incoordination, paralysis, ataxia, convulsions, diarrhoea, cachexia, erythema, hypothermia, mortality)",[3]; [4],did not observe adverse side effects
same,body weight loss,[3]; [4],No body weight loss
same,macroscopic analyses of organs,[3]; [4],did not evidence abnormalities in organs
same,tolerability,"[3]; 25 mg/kg, three times a week up to the end of experiment",well-tolerated
